B1: ESRRG (parent)
chain: YSCPATNECEITKRRRKSCQACRF

Variants of: B1
Test: protein stability index of a GFP-peptide fusion (GPS, HEK-293T) (PSI 1-6); higher = more stable
Conditions: c terminus: a fixed tail appended
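Further: lentivirally expressed fusions sorted by FACS into six bins by GFP to DsRed ratio, PSI derived from sequencing read proportions per bin multiplied by bin number.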

Variant	protein stability index
C3A	4.23
C3S	3.56
R23A	3.1
R23I	2.59
R23L	2.73
T12F	2.19
T12V	3.33
T12H	4.38
A21W	2.55
R16H	3.8
A5L	3.2
K13Q	3.45
K13M	3.15
K13R	3.64
T6Q	3.42
I11C	3.83
E10D	3.34
Q20I	2.2
Q20V	2.78
E8Y	2.32
E8A	3.46
K17C	4.5
C9R	3.38
C19I	2.94
R15C	3.46
R15E	3.37
C22Q	3.67
C22T	3.58

Source: the supplement of paper PMC10567573
